Measurements as given in the Immune Epitope Database (IEDB).

How the values were obtained:
Experiment in all cases: IEDB peptide-MHC binding, purified MHC/competitive/radioactivity; filed as Kd, often an IC50 or EC50 that approximates it; ≥ and ≤ were set here for values at or beyond the usual limits of such assays
[1] = molecular target: HLA-A*31:01
[2] = molecular target: HLA-A*68:01
[3] = molecular target: HLA-A*33:01
[4] = molecular target: HLA-A*11:01
[5] = molecular target: HLA-A*03:01
[6] = source organism: Vaccinia virus WR
[7] = source organism: SARS coronavirus Tor2
[8] = source organism: Dengue virus 2 Jamaica/1409/1983
[9] = source organism: Dengue virus 4 Dominica/814669/1981
[10] = source organism: Dengue virus 3 Singapore/8120/1995
[11] = source organism: Dengue virus 3 Martinique/1243/1999
[12] = source organism: Dengue virus 1 Brazil/97-11/1997
[13] = source organism: Dengue virus 4 Philippines/H241/1956
[14] = source organism: Lassa virus Josiah
[15] = source organism: Mammarenavirus guanaritoense
[16] = source organism: Dengue virus 1 Nauru/West Pac/1974
[17] = source organism: Mammarenavirus whitewaterense

Row | Sequence | Kd [1, 6] [nM] | Kd [2, 6] [nM] | Kd [3, 6] [nM] | Kd [4, 6] [nM] | Kd [5, 6] [nM] | further results
1 | AATIQTPTK | 137 | 1670 | 1260 | 9.51 | 4120 | 
2 | AAYFVGYLK |  |  |  |  |  | Kd [1, 7]: 178 nM; Kd [2, 7]: 3.19 nM; Kd [3, 7]: 5550 nM; Kd [4, 7]: 3.19 nM; Kd [5, 7]: 3.9 nM
3 | AIFKLTYQNK |  |  |  |  |  | Kd [4, 8]: 57.5 nM; Kd [5, 8]: 41.4 nM
4 | AIITPVVFY | ≥ 10000 | 1470 | ≥ 45500 | 0.362 | 409 | 
5 | AIITPVVFYR | 11.6 | 1.72 | 311 | 11.3 | 3700 | 
6 | AIKILIGFRK |  |  |  |  |  | Kd [4, 9]: 432 nM; Kd [5, 9]: 215 nM
7 | AISDYDYYR |  |  |  |  |  | Kd [1, 7]: 26 nM; Kd [2, 7]: 118 nM; Kd [3, 7]: 490 nM; Kd [4, 7]: 65 nM; Kd [5, 7]: 86.5 nM
8 | ALTPPVSDLK |  |  |  |  |  | Kd [5, 9]: 86.9 nM
9 | ASLKNTISK | 1800 | 3750 | ≥ 77700 | 5.21 | 6.45 | 
10 | ASTTENAAY | ≥ 71400 | 2420 | 3880 | 307 | 2170 | 
11 | ATLAFHLTSR |  |  |  |  |  | Kd [1, 10]: 2.69 nM; Kd [2, 10]: 50.9 nM
12 | ATTVITPMLR |  |  |  |  |  | Kd [1, 11]: 163 nM; Kd [2, 11]: 47.2 nM; Kd [4, 11]: 222 nM
13 | AVMYMGTLSY |  |  |  |  |  | Kd [1, 7]: 3200 nM; Kd [2, 7]: 2580 nM; Kd [3, 7]: 10800 nM; Kd [4, 7]: 7.78 nM; Kd [5, 7]: 7.67 nM
14 | AVNTPVSMTY | 7440 | 4660 | ≥ 70000 | 20.7 | 71.5 | 
15 | AVRAFLLRHY | 5240 | ≥ 29500 | ≥ 70000 | 1070 | 862 | 
16 | CICYGSYSLY | 4390 | 1580 | 2040 | 341 | 0.434 | 
17 | CIPSRSKMLK | 64.5 | 27.9 | 63.2 | 4.27 | 1.09 | 
18 | CVFAYVGCY |  |  |  |  |  | Kd [1, 7]: 11900 nM; Kd [2, 7]: 4120 nM; Kd [3, 7]: ≥ 20600 nM; Kd [4, 7]: ≥ 27500 nM; Kd [5, 7]: 19200 nM
19 | DAIDGEYRLR |  |  |  |  |  | Kd [2, 8]: 17.1 nM; Kd [3, 8]: 246 nM
20 | DFSKSTSPTR | 278 | 112 | 1040 | 4490 | 2720 | 
21 | DISKLTNFK | 5480 | 1.21 | 48 | 338 | 781 | 
22 | DIVNEHDIKY | ≥ 37200 | 4610 | ≥ 46100 | 12600 | 7030 | 

Row | Sequence | Kd [1, 6] [nM] | Kd [2, 6] [nM] | Kd [3, 6] [nM] | Kd [4, 6] [nM] | Kd [5, 6] [nM] | further results
23 | DLTALLSCIR | 510 | 10.9 | 76.8 | 1560 | 13200 | 
24 | DTMTYKCPR |  |  |  |  |  | Kd [1, 12]: 4880 nM; Kd [2, 12]: 67.1 nM; Kd [3, 12]: 6.64 nM
25 | DVFHLYLQY |  |  |  |  |  | Kd [1, 7]: 4240 nM; Kd [2, 7]: 188 nM; Kd [3, 7]: 5450 nM; Kd [4, 7]: 10600 nM; Kd [5, 7]: 5470 nM
26 | DVLEIINDK | ≥ 53300 | 720 | 719 | 4580 | ≥ 53500 | 
27 | DYEVDEDIFR |  |  |  |  |  | Kd [3, 13]: 471 nM
28 | EDKAWLVHR |  |  |  |  |  | Kd [3, 8]: 15.6 nM
29 | EINEWLSSK | 7100 | 3.76 | 18.6 | 170 | 201 | 
30 | ELALTDVEKR | 11800 | 149 | 16800 | ≥ 69800 | ≥ 68800 | 
31 | ELESLSKRER | 3450 | 388 | 12600 | 4230 | ≥ 70100 | 
32 | ELQSVLVTTY | 16100 | 1480 | ≥ 61800 | 603 | 2000 | 
33 | EMGANFRAGR |  |  |  |  |  | Kd [1, 13]: 67.3 nM; Kd [3, 13]: 7.51 nM
34 | ENAVWDQYK |  |  |  |  |  | Kd [1, 14]: ≥ 22500 nM; Kd [2, 14]: 42.9 nM; Kd [3, 14]: 958 nM; Kd [4, 14]: 6640 nM; Kd [5, 14]: 12600 nM
35 | ETTILDVDLR |  |  |  |  |  | Kd [2, 13]: 45 nM
36 | EVGSIRCVK | 5910 | 1.19 | 83 | 332 | 543 | 
37 | FESLFKCLSH |  |  |  |  |  | Kd [1, 15]: 608 nM; Kd [3, 15]: 2750 nM; Kd [5, 15]: 5530 nM
38 | FFVFIHMVR | 1.08 | 0.0241 | 0.46 | 3780 | 0.874 | 
39 | FIKPVSDLY | 634 | 252 | 501 | 832 | 647 | 
40 | FITKEIKNR | 3590 | 276 | 6040 | ≥ 77900 | ≥ 78000 | 
41 | FMRDWNSKY | ≥ 77900 | ≥ 77700 | ≥ 66300 | ≥ 77900 | 8370 | 
42 | FSAGAGVLDK | 575 | 15 | 350 | 225 | 452 | 
43 | GFCIPSRSK | 179 | ≥ 38600 | ≥ 77700 | 1900 | 973 | 
44 | GIFLFLMSGK |  |  |  |  |  | Kd [4, 8]: 549 nM; Kd [5, 8]: 85.5 nM

Row | Sequence | Kd [1, 6] [nM] | Kd [2, 6] [nM] | Kd [3, 6] [nM] | Kd [4, 6] [nM] | Kd [5, 6] [nM] | further results
45 | GLALYYPSAR |  |  |  |  |  | Kd [1, 7]: 993 nM; Kd [2, 7]: 89.8 nM; Kd [3, 7]: 2840 nM; Kd [4, 7]: 1120 nM; Kd [5, 7]: 226 nM
46 | GSSADLSLEK |  |  |  |  |  | Kd [4, 12]: 76 nM
47 | GVSYEVFDDY | ≥ 70000 | ≥ 70200 | ≥ 70000 | 504 | ≥ 70100 | 
48 | GYVLGIFLR |  |  |  |  |  | Kd [1, 13]: 15.7 nM; Kd [3, 13]: 39.8 nM
49 | HLAIMAVFK |  |  |  |  |  | Kd [2, 13]: 70.6 nM; Kd [5, 13]: 5.77 nM
50 | HSNLTETFR | 0.596 | 0.414 | 4.95 | 40.6 | 112 | 
51 | IAVSMANIFR |  |  |  |  |  | Kd [1, 8]: 37.4 nM; Kd [2, 8]: 17.3 nM; Kd [3, 8]: 279 nM
52 | IIKHIYEQY | 2660 | 2180 | ≥ 41600 | 4140 | 1850 | 
53 | IIVAGFSGK | 689 | 1440 | 805 | 25.4 | 9.1 | 
54 | IMLPESDLDK | 489 | 1670 | ≥ 70000 | 393 | 609 | 
55 | IQKITVFNK |  | ≥ 30300 |  |  |  | 
56 | ISIYSRPKIK | 5070 | 1730 | 8830 | 1670 | 143 | 
57 | ITANPVVTKK |  |  |  |  |  | Kd [2, 11]: 23.9 nM; Kd [4, 11]: 84.6 nM
58 | ITENKIWGR |  |  |  |  |  | Kd [3, 16]: 141 nM
59 | ITTLLNETAK | 10700 | 11.4 | ≥ 20800 | 12.4 | 10.9 | 
60 | IVSSVNTTSK |  |  |  |  |  | Kd [4, 13]: 234 nM; Kd [5, 13]: 37.2 nM
61 | KAFKNNLSR | 25.4 | 171 | 4140 | 152 | 301 | 
62 | KCFANNQDER |  |  |  |  |  | Kd [1, 17]: 6690 nM; Kd [2, 17]: 6890 nM; Kd [3, 17]: ≥ 70000 nM; Kd [4, 17]: ≥ 60300 nM; Kd [5, 17]: ≥ 70000 nM
63 | KFLELKRGIY | 22.6 | 10900 | ≥ 70000 | ≥ 69800 | 1240 | 
64 | KKSKAINVLR |  |  |  |  |  | Kd [1, 8]: 163 nM
65 | KLCKNHAEK | 543 | 986 | ≥ 38700 | 19.9 | 13 | 
66 | KLFKKTDFK | 8.08 | 6280 | 13900 | 8.86 | 8.46 | 

Row | Sequence | Kd [1, 6] [nM] | Kd [2, 6] [nM] | Kd [3, 6] [nM] | Kd [4, 6] [nM] | Kd [5, 6] [nM] | further results
67 | KLVTQWCCR |  |  |  |  |  | Kd [1, 13]: 11.9 nM
68 | KMSTDNAVY | 9730 | 11600 | ≥ 77700 | 182 | 43.4 | 
69 | KSLLLLNTR | 0.627 | 16900 | 1160 | 114 | 689 | 
70 | KWLWGFLSR |  |  |  |  |  | Kd [1, 12]: ≥ 77900 nM
71 | KWMLISSELK |  |  |  |  |  | Kd [1, 17]: 127 nM; Kd [2, 17]: 891 nM; Kd [3, 17]: 10500 nM; Kd [4, 17]: 248 nM; Kd [5, 17]: 19.9 nM
72 | LFDFVNEKY | ≥ 30000 | ≥ 26100 | ≥ 77700 | ≥ 48700 | ≥ 78000 | 
73 | LFKNVRLLK | 185 | 2090 | 1010 | 885 | 233 | 
74 | LIPVSEVLLK | ≥ 70000 | 1210 | ≥ 70000 | 609 | 5230 | 
75 | LIVTFRERY | 836 | 408 | 4130 | 187 | 4680 | 
76 | LLKYAGLTIK | 1610 | 3150 | 14500 | 162 | 10.7 | 
77 | LMTLDDLAIK | ≥ 40700 | 2490 | ≥ 20900 | 478 | 1670 | 
78 | LQFTSLEIPR |  |  |  |  |  | Kd [1, 7]: 30.5 nM; Kd [2, 7]: 402 nM; Kd [3, 7]: 1210 nM; Kd [4, 7]: 850 nM; Kd [5, 7]: 804 nM
79 | MLINRFTMK |  |  |  |  |  | Kd [4, 8]: 116 nM; Kd [5, 8]: 3.57 nM
80 | MVLLQMENK |  |  |  |  |  | Kd ([4]; source organism: Dengue virus 2 Thailand/NGS-C/1944): 227 nM
81 | NIVMLHTTER |  |  |  |  |  | Kd [2, 13]: 16.9 nM; Kd [3, 13]: 83.8 nM
82 | QAIDGEFRLR |  |  |  |  |  | Kd [2, 13]: 15.5 nM
83 | QLKLNWFKK |  |  |  |  |  | Kd [5, 8]: 134 nM
84 | STVSQLAKR |  |  |  |  |  | Kd [1, 16]: ≥ 77900 nM; Kd [2, 16]: 9.66 nM
85 | VMAFHLSTR |  |  |  |  |  | Kd ([1]; source organism: Dengue virus 4 Thailand/0348/1991): 9.39 nM
86 | VTRLENLMWK |  |  |  |  |  | Kd [4, 8]: 128 nM
87 | WYMWQVKTQR |  |  |  |  |  | Kd [3, 13]: 2.54 nM
